Measured values: patent US20210221874A1

Target: anthrax protective antigen, wild type PA83 (Bacillus anthracis) (UniProt P13423)
Sequence (P13423 30-764): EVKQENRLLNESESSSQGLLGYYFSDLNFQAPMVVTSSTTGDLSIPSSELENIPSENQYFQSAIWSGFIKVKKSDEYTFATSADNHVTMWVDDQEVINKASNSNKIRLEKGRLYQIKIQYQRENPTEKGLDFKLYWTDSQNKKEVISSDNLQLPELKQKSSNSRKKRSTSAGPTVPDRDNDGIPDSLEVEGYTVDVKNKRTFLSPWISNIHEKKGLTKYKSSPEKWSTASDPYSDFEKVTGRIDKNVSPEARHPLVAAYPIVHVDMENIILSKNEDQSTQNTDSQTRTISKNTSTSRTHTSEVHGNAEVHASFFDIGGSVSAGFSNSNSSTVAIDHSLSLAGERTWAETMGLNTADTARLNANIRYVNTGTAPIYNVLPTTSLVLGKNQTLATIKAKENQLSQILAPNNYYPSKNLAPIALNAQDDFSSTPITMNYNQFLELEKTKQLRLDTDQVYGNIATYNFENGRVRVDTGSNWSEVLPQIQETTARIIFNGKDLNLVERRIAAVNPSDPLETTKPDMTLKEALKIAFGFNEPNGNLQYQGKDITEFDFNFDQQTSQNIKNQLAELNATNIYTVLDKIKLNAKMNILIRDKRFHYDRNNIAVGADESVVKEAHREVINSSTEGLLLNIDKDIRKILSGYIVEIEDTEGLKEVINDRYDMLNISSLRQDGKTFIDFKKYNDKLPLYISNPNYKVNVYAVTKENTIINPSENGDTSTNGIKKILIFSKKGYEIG

“neutralizing anti-PA mouse monoclonal antibody 14B7” gave an IC50 (read off the curve) of 10 nM.
